Patent US20140213513A1 (Sanofi, priority 2012, published 2014)
*1 amine or outer side, *2 acyl side, *3 side chain or, on linkers, in order; H or OH if unused. Where no end group is shown, it is not given here. Side-chain parts run from the residue outwards. [ ]: non-standard residue; d: D form. The star is where a group is joined. γGlu = O=C(O)[C@H](CCC(=O)[*:2])N[*:1]; Palmitoyl = CCCCCCCCCCCCCCCC(=O)*; Aib = CC(C)(N)C(=O)O

T1: human GIP receptor (human, UniProt P48546 22-466)
T1 sequence (looked up): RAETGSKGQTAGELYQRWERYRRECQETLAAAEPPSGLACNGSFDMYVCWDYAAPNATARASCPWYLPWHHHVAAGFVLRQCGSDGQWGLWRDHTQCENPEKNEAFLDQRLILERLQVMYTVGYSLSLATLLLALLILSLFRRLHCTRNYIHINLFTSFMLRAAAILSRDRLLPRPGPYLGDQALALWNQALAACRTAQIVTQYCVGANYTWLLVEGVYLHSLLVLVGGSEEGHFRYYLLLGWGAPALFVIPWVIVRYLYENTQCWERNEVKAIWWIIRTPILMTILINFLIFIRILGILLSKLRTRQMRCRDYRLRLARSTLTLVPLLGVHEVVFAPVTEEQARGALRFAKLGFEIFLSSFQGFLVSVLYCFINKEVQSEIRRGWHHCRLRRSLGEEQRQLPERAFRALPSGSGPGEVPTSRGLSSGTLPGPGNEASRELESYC


Legend:
Test in all cases: cell-based or functional assay
human GLP-1 receptor = human GLP-1 receptor (human, UniProt P43220 24-463)
human glucagon receptor = human glucagon receptor (human, UniProt P47871 26-477)
human GIP receptor = target: T1, human GIP receptor

Sequence of human glucagon receptor (P47871 26-477): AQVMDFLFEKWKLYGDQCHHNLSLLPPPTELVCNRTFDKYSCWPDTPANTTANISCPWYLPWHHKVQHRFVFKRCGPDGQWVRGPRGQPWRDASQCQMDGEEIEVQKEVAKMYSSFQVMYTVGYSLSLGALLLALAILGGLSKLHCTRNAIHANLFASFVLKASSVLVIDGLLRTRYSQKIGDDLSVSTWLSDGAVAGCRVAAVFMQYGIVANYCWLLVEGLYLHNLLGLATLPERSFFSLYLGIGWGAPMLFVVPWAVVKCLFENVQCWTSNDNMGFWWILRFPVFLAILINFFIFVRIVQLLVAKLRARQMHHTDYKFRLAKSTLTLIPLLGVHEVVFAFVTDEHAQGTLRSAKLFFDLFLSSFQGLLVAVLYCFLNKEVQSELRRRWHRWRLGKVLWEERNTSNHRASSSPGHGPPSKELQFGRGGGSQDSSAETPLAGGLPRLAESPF

Binder	EC50 hGLP-1 R (human GLP-1 receptor) [nM]	EC50 hGLUC R (human glucagon receptor) [nM]	EC50 hGIP R (human GIP receptor) [nM]
Y[Aib]QGTFTSDLSIQK([γGlu-Palmitoyl])EKRAV[Aib]LFIEWLKAGGPSSGAPPPS-NH2 (N-terminus assumed; SMILES CCCCCCCCCCCCCCCC(=O)N[C@@H](CCC(=O)NCCCC[C@H](NC(=O)[C@H](CCC(N)=O)NC(=O)[C@@H](NC(=O)[C@H](CO)NC(=O)[C@H](CC(C)C)NC(=O)[C@H](CC(=O)O)NC(=O)[C@H](CO)NC(=O)[C@@H](NC(=O)[C@H](Cc1ccccc1)NC(=O)[C@@H](NC(=O)CNC(=O)[C@H](CCC(N)=O)NC(=O)C(C)(C)NC(=O)[C@@H](N)Cc1ccc(O)cc1)[C@@H](C)O)[C@@H](C)O)[C@@H](C)CC)C(=O)N[C@@H](CCC(=O)O)C(=O)N[C@@H](CCCCN)C(=O)N[C@@H](CCCNC(=N)N)C(=O)N[C@@H](C)C(=O)N[C@H](C(=O)NC(C)(C)C(=O)N[C@@H](CC(C)C)C(=O)N[C@@H](Cc1ccccc1)C(=O)N[C@H](C(=O)N[C@@H](CCC(=O)O)C(=O)N[C@@H](Cc1c[nH]c2ccccc12)C(=O)N[C@@H](CC(C)C)C(=O)N[C@@H](CCCCN)C(=O)N[C@@H](C)C(=O)NCC(=O)NCC(=O)N1CCC[C@H]1C(=O)N[C@@H](CO)C(=O)N[C@@H](CO)C(=O)NCC(=O)N[C@@H](C)C(=O)N1CCC[C@H]1C(=O)N1CCC[C@H]1C(=O)N1CCC[C@H]1C(=O)N[C@@H](CO)C(N)=O)[C@@H](C)CC)C(C)C)C(=O)O) [exendin-4 peptide analogue SEQ ID NO: 24]	0.0192	0.284	0.0104
Y[Aib]QGTFTSDLSIQK([γGlu-Palmitoyl])EKRLA[Aib]EFIEWLKNTGPSSGAPPPS-NH2 (N-terminus assumed; SMILES CCCCCCCCCCCCCCCC(=O)N[C@@H](CCC(=O)NCCCC[C@H](NC(=O)[C@H](CCC(N)=O)NC(=O)[C@@H](NC(=O)[C@H](CO)NC(=O)[C@H](CC(C)C)NC(=O)[C@H](CC(=O)O)NC(=O)[C@H](CO)NC(=O)[C@@H](NC(=O)[C@H](Cc1ccccc1)NC(=O)[C@@H](NC(=O)CNC(=O)[C@H](CCC(N)=O)NC(=O)C(C)(C)NC(=O)[C@@H](N)Cc1ccc(O)cc1)[C@@H](C)O)[C@@H](C)O)[C@@H](C)CC)C(=O)N[C@@H](CCC(=O)O)C(=O)N[C@@H](CCCCN)C(=O)N[C@@H](CCCNC(=N)N)C(=O)N[C@@H](CC(C)C)C(=O)N[C@@H](C)C(=O)NC(C)(C)C(=O)N[C@@H](CCC(=O)O)C(=O)N[C@@H](Cc1ccccc1)C(=O)N[C@H](C(=O)N[C@@H](CCC(=O)O)C(=O)N[C@@H](Cc1c[nH]c2ccccc12)C(=O)N[C@@H](CC(C)C)C(=O)N[C@@H](CCCCN)C(=O)N[C@@H](CC(N)=O)C(=O)N[C@H](C(=O)NCC(=O)N1CCC[C@H]1C(=O)N[C@@H](CO)C(=O)N[C@@H](CO)C(=O)NCC(=O)N[C@@H](C)C(=O)N1CCC[C@H]1C(=O)N1CCC[C@H]1C(=O)N1CCC[C@H]1C(=O)N[C@@H](CO)C(N)=O)[C@@H](C)O)[C@@H](C)CC)C(=O)O) [exendin-4 peptide analogue SEQ ID NO: 19]	0.0085	0.137	0.0915
Y[Aib]QGTFTSDLSIQK(Palmitoyl)EQRAA[Aib]EFIEWLKNTGPSSGAPPPS-NH2 (N-terminus assumed; SMILES CCCCCCCCCCCCCCCC(=O)NCCCC[C@H](NC(=O)[C@H](CCC(N)=O)NC(=O)[C@@H](NC(=O)[C@H](CO)NC(=O)[C@H](CC(C)C)NC(=O)[C@H](CC(=O)O)NC(=O)[C@H](CO)NC(=O)[C@@H](NC(=O)[C@H](Cc1ccccc1)NC(=O)[C@@H](NC(=O)CNC(=O)[C@H](CCC(N)=O)NC(=O)C(C)(C)NC(=O)[C@@H](N)Cc1ccc(O)cc1)[C@@H](C)O)[C@@H](C)O)[C@@H](C)CC)C(=O)N[C@@H](CCC(=O)O)C(=O)N[C@@H](CCC(N)=O)C(=O)N[C@@H](CCCNC(=N)N)C(=O)N[C@@H](C)C(=O)N[C@@H](C)C(=O)NC(C)(C)C(=O)N[C@@H](CCC(=O)O)C(=O)N[C@@H](Cc1ccccc1)C(=O)N[C@H](C(=O)N[C@@H](CCC(=O)O)C(=O)N[C@@H](Cc1c[nH]c2ccccc12)C(=O)N[C@@H](CC(C)C)C(=O)N[C@@H](CCCCN)C(=O)N[C@@H](CC(N)=O)C(=O)N[C@H](C(=O)NCC(=O)N1CCC[C@H]1C(=O)N[C@@H](CO)C(=O)N[C@@H](CO)C(=O)NCC(=O)N[C@@H](C)C(=O)N1CCC[C@H]1C(=O)N1CCC[C@H]1C(=O)N1CCC[C@H]1C(=O)N[C@@H](CO)C(N)=O)[C@@H](C)O)[C@@H](C)CC) [exendin-4 peptide analogue SEQ ID NO: 21]	0.037	0.674	0.189
Y[Aib]EGTFTSDLSIQK([γGlu-Palmitoyl])EKRAA[Aib]EFIEWLKRAGPSSGAPPPS-NH2 (N-terminus assumed; SMILES CCCCCCCCCCCCCCCC(=O)N[C@@H](CCC(=O)NCCCC[C@H](NC(=O)[C@H](CCC(N)=O)NC(=O)[C@@H](NC(=O)[C@H](CO)NC(=O)[C@H](CC(C)C)NC(=O)[C@H](CC(=O)O)NC(=O)[C@H](CO)NC(=O)[C@@H](NC(=O)[C@H](Cc1ccccc1)NC(=O)[C@@H](NC(=O)CNC(=O)[C@H](CCC(=O)O)NC(=O)C(C)(C)NC(=O)[C@@H](N)Cc1ccc(O)cc1)[C@@H](C)O)[C@@H](C)O)[C@@H](C)CC)C(=O)N[C@@H](CCC(=O)O)C(=O)N[C@@H](CCCCN)C(=O)N[C@@H](CCCNC(=N)N)C(=O)N[C@@H](C)C(=O)N[C@@H](C)C(=O)NC(C)(C)C(=O)N[C@@H](CCC(=O)O)C(=O)N[C@@H](Cc1ccccc1)C(=O)N[C@H](C(=O)N[C@@H](CCC(=O)O)C(=O)N[C@@H](Cc1c[nH]c2ccccc12)C(=O)N[C@@H](CC(C)C)C(=O)N[C@@H](CCCCN)C(=O)N[C@@H](CCCNC(=N)N)C(=O)N[C@@H](C)C(=O)NCC(=O)N1CCC[C@H]1C(=O)N[C@@H](CO)C(=O)N[C@@H](CO)C(=O)NCC(=O)N[C@@H](C)C(=O)N1CCC[C@H]1C(=O)N1CCC[C@H]1C(=O)N1CCC[C@H]1C(=O)N[C@@H](CO)C(N)=O)[C@@H](C)CC)C(=O)O) [exendin-4 peptide analogue SEQ ID NO: 20]	0.0082	18.2	0.0163
Y[Aib]QGTFTSDLSIQK([γGlu-Palmitoyl])EKRAA[Aib]YFIEWLKNTGPSSGAPPPS-NH2 (N-terminus assumed; SMILES CCCCCCCCCCCCCCCC(=O)N[C@@H](CCC(=O)NCCCC[C@H](NC(=O)[C@H](CCC(N)=O)NC(=O)[C@@H](NC(=O)[C@H](CO)NC(=O)[C@H](CC(C)C)NC(=O)[C@H](CC(=O)O)NC(=O)[C@H](CO)NC(=O)[C@@H](NC(=O)[C@H](Cc1ccccc1)NC(=O)[C@@H](NC(=O)CNC(=O)[C@H](CCC(N)=O)NC(=O)C(C)(C)NC(=O)[C@@H](N)Cc1ccc(O)cc1)[C@@H](C)O)[C@@H](C)O)[C@@H](C)CC)C(=O)N[C@@H](CCC(=O)O)C(=O)N[C@@H](CCCCN)C(=O)N[C@@H](CCCNC(=N)N)C(=O)N[C@@H](C)C(=O)N[C@@H](C)C(=O)NC(C)(C)C(=O)N[C@@H](Cc1ccc(O)cc1)C(=O)N[C@@H](Cc1ccccc1)C(=O)N[C@H](C(=O)N[C@@H](CCC(=O)O)C(=O)N[C@@H](Cc1c[nH]c2ccccc12)C(=O)N[C@@H](CC(C)C)C(=O)N[C@@H](CCCCN)C(=O)N[C@@H](CC(N)=O)C(=O)N[C@H](C(=O)NCC(=O)N1CCC[C@H]1C(=O)N[C@@H](CO)C(=O)N[C@@H](CO)C(=O)NCC(=O)N[C@@H](C)C(=O)N1CCC[C@H]1C(=O)N1CCC[C@H]1C(=O)N1CCC[C@H]1C(=O)N[C@@H](CO)C(N)=O)[C@@H](C)O)[C@@H](C)CC)C(=O)O) [exendin-4 peptide analogue SEQ ID NO: 23]	0.0092	0.312	0.135
Y[Aib]QGTFTSDLSIQK([γGlu-Palmitoyl])EKRA[Aib][Aib]EFIEWLKNTGPSSGAPPPS-NH2 (N-terminus assumed; SMILES CCCCCCCCCCCCCCCC(=O)N[C@@H](CCC(=O)NCCCC[C@H](NC(=O)[C@H](CCC(N)=O)NC(=O)[C@@H](NC(=O)[C@H](CO)NC(=O)[C@H](CC(C)C)NC(=O)[C@H](CC(=O)O)NC(=O)[C@H](CO)NC(=O)[C@@H](NC(=O)[C@H](Cc1ccccc1)NC(=O)[C@@H](NC(=O)CNC(=O)[C@H](CCC(N)=O)NC(=O)C(C)(C)NC(=O)[C@@H](N)Cc1ccc(O)cc1)[C@@H](C)O)[C@@H](C)O)[C@@H](C)CC)C(=O)N[C@@H](CCC(=O)O)C(=O)N[C@@H](CCCCN)C(=O)N[C@@H](CCCNC(=N)N)C(=O)N[C@@H](C)C(=O)NC(C)(C)C(=O)NC(C)(C)C(=O)N[C@@H](CCC(=O)O)C(=O)N[C@@H](Cc1ccccc1)C(=O)N[C@H](C(=O)N[C@@H](CCC(=O)O)C(=O)N[C@@H](Cc1c[nH]c2ccccc12)C(=O)N[C@@H](CC(C)C)C(=O)N[C@@H](CCCCN)C(=O)N[C@@H](CC(N)=O)C(=O)N[C@H](C(=O)NCC(=O)N1CCC[C@H]1C(=O)N[C@@H](CO)C(=O)N[C@@H](CO)C(=O)NCC(=O)N[C@@H](C)C(=O)N1CCC[C@H]1C(=O)N1CCC[C@H]1C(=O)N1CCC[C@H]1C(=O)N[C@@H](CO)C(N)=O)[C@@H](C)O)[C@@H](C)CC)C(=O)O) [exendin-4 peptide analogue SEQ ID NO: 22]	0.0085	2.21	0.102
